Assay results as given in the RNAGym collection of RNA variant scans (doi:10.1093/molbev/msab373).

B1: Azoarcus group I ribozyme (parent)
chain: GUGCCUUGCGCCGGGAAACCACGCAAGGGAUGGUGUCAAAUUCGGCGAAACCUAAGCGCCCGCCCGGGCGUAUGGCAACGCCGAGCCAAGCUUCGGCGCCUGCGCCGAUGAAGGUGUAGAGACUAGACGGCACCCACCUAAGGCAAACGCUAUGGUGAAGGCAUAGUCCAGGGAGUGGCGAAAGUCACACAAACCGG

Variants of: B1
Assay: reverse-splicing fitness (ratio to wild type); higher = more active; in vitro selection; Mg2+ level not given
Outline: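 An in vitro group I ribozyme library with randomized positions was T7-transcribed and gel-purified. In triplicate, 10 pmol RNA in EPPS pH 7.5 was reacted with 50 pmoles of a 30-nt RNA substrate for 1 h at 37 °C across several added MgCl2 levels (1–48 mM), then stopped with EDTA. Products were reverse transcribed from a substrate-complementary primer, PCR-amplified and sequenced (HiSeq 4000). Fitness is a variant's read proportion after selection over that before, normalised to wild type.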

Point of comparison: GUGCCUUGCGCCGGGAAACCACGCAAGGGAUGGUGUCAAAUUCGGCGAAACCUAAGCGCCCGCCCGGGCGUAUGGCAACGCUGAGCCAAGCUUCGGCGCCUGCGCCGAUGAAGGUGUAGGGACUAGACGGCACCCACCUAAGGCCAACGUUAUGGUGAAGGCAUAGUCUAGGGAGGGGCGAAAGUCACACAAACCGG [C82U A120G A145C C150U C169U U176G], reverse-splicing fitness 0.00351. Against it:
- GUGCCUUGCGCCGGGAAACCACGCAAGGGAUGGUGUCAAAUUCGGCGAAACCUAAGCGCCCGCCCGGGCGUAUGGCAACGCUGAGCCAAGCUUCGGCGCCUGCGCCGAUGAAGGUGUAGGGACUAGACGGCACCCACCUAAGGCCAACGUUAUGGUGAAGGCAUAGUCCAGGGAGCGGCGAAAGUCACACAAACCGG [C82U A120G A145C C150U U176C] — higher, 0.00744
- GUGCCUUGCGCCGGGAAACCACGCAAGGGAUGGUGUCAAAUUCGGCGAAACCUAAGCGCCCGCCCGGGCGUAUGGCAACGCUGAGCCAAGCUUCGGCGCCUGCGCCGAUGAAGGUGUAGGGACUAGACGGCACCCACCUAAGGCCAACGGUAUGGUGAAGGCAUAGUCCAGGGAGAGGCGAAAGUCACACAAACCGG [C82U A120G A145C C150G U176A] — higher, 0.00438
- GUGCCUUGCGCCGGGAAACCACGCAAGGGAUGGUGUCAAAUUCGGCGAAACCUAAGCGCCCGCCCGGGCGUAUGGCAACGCUGAGCCAAGCUUCGGCGCCUGCGCCGAUGAAGGUGUAGGGACUAGACGGCACCCACCUAAGGCCAACGGUAUGGUGAAGGCAUAGUCCAGGGAGCGGCGAAAGUCACACAAACCGG [C82U A120G A145C C150G U176C] — higher, 0.00608
- GUGCCUUGCGCCGGGAAACCACGCAAGGGAUGGUGUCAAAUUCGGCGAAACCUAAGCGCCCGCCCGGGCGUAUGGCAACGCUGAGCCAAGCUUCGGCGCCUGCGCCGAUGAAGGUGUAGGGACUAGACGGCACCCACCUAAGGCCAACGGUAUGGUGAAGGCAUAGUCCAGGGAGGGGCGAAAGUCACACAAACCGG [C82U A120G A145C C150G U176G] — lower, 0.00257
- GUGCCUUGCGCCGGGAAACCACGCAAGGGAUGGUGUCAAAUUCGGCGAAACCUAAGCGCCCGCCCGGGCGUAUGGCAACGCUGAGCCAAGCUUCGGCGCCUGCGCCGAUGAAGGUGUAGGGACUAGACGGCACCCACCUAAGGCCAACGCUAUGGUGAAGGCAUAGUCAAGGGAGUGGCGAAAGUCACACAAACCGG [C82U A120G A145C C169A] — higher, 0.014
- GUGCCUUGCGCCGGGAAACCACGCAAGGGAUGGUGUCAAAUUCGGCGAAACCUAAGCGCCCGCCCGGGCGUAUGGCAACGCUGAGCCAAGCUUCGGCGCCUGCGCCGAUGAAGGUGUAGGGACUAGACGGCACCCACCUAAGGCCAACGUUAUGGUGAAGGCAUAGUCUAGGGAGAGGCGAAAGUCACACAAACCGG [C82U A120G A145C C150U C169U U176A] — higher, 0.0235
- GUGCCUUGCGCCGGGAAACCACGCAAGGGAUGGUGUCAAAUUCGGCGAAACCUAAGCGCCCGCCCGGGCGUAUGGCAACGCUGAGCCAAGCUUCGGCGCCUGCGCCGAUGAAGGUGUAGGGACUAGACGGCACCCACCUAAGGCCAACGUUAUGGUGAAGGCAUAGUCUAGGGAGCGGCGAAAGUCACACAAACCGG [C82U A120G A145C C150U C169U U176C] — higher, 0.00975
- GUGCCUUGCGCCGGGAAACCACGCAAGGGAUGGUGUCAAAUUCGGCGAAACCUAAGCGCCCGCCCGGGCGUAUGGCAACGCUGAGCCAAGCUUCGGCGCCUGCGCCGAUGAAGGUGUAGGGACUAGACGGCACCCACCUAAGGCCAACGGUAUGGUGAAGGCAUAGUCUAGGGAGCGGCGAAAGUCACACAAACCGG [C82U A120G A145C C150G C169U U176C] — higher, 0.0104
- GUGCCUUGCGCCGGGAAACCACGCAAGGGAUGGUGUCAAAUUCGGCGAAACCUAAGCGCCCGCCCGGGCGUAUGGCAACGCUGAGCCAAGCUUCGGCGCCUGCGCCGAUGAAGGUGUAGGGACUAGACGGCACCCACCUAAGGCCAACGGUAUGGUGAAGGCAUAGUCUAGGGAGGGGCGAAAGUCACACAAACCGG [C82U A120G A145C C150G C169U U176G] — higher, 0.00443
- GUGCCUUGCGCCGGGAAACCACGCAAGGGAUGGUGUCAAAUUCGGCGAAACCUAAGCGCCCGCCCGGGCGUAUGGCAACGCUGAGCCAAGCUUCGGCGCCUGCGCCGAUGAAGGUGUAGGGACUAGACGGCACCCACCUAAGGCCAACGGUAUGGUGAAGGCAUAGUCUAGGGAGAGGCGAAAGUCACACAAACCGG [C82U A120G A145C C150G C169U U176A] — higher, 0.0158
- GUGCCUUGCGCCGGGAAACCACGCAAGGGAUGGUGUCAAAUUCGGCGAAACCUAAGCGCCCGCCCGGGCGUAUGGCAACGCUGAGCCAAGCUUCGGCGCCUGCGCCGAUGAAGGUGUAGGGACUAGACGGCACCCACCUAAGGCCAACGCUAUGGUGAAGGCAUAGUCAAGGGAGAGGCGAAAGUCACACAAACCGG [C82U A120G A145C C169A U176A] — higher, 0.00959
- GUGCCUUGCGCCGGGAAACCACGCAAGGGAUGGUGUCAAAUUCGGCGAAACCUAAGCGCCCGCCCGGGCGUAUGGCAACGCUGAGCCAAGCUUCGGCGCCUGCGCCGAUGAAGGUGUAGGGACUAGACGGCACCCACCUAAGGCCAACGGUAUGGUGAAGGCAUAGUCGAGGGAGUGGCGAAAGUCACACAAACCGG [C82U A120G A145C C150G C169G] — higher, 0.00837
- GUGCCUUGCGCCGGGAAACCACGCAAGGGAUGGUGUCAAAUUCGGCGAAACCUAAGCGCCCGCCCGGGCGUAUGGCAACGCUGAGCCAAGCUUCGGCGCCUGCGCCGAUGAAGGUGUAGGGACUAGACGGCACCCACCUAAGGCCAACGGUAUGGUGAAGGCAUAGUCUAGGGAGUGGCGAAAGUCACACAAACCGG [C82U A120G A145C C150G C169U] — higher, 0.00822
- GUGCCUUGCGCCGGGAAACCACGCAAGGGAUGGUGUCAAAUUCGGCGAAACCUAAGCGCCCGCCCGGGCGUAUGGCAACGCUGAGCCAAGCUUCGGCGCCUGCGCCGAUGAAGGUGUAGGGACUAGACGGCACCCACCUAAGGCCAACGUUAUGGUGAAGGCAUAGUCCAGGGAGUGGCGAAAGUCACACAAACCGG [C82U A120G A145C C150U] — higher, 0.0102
